Earlier results as cited in patent US8337823B2, “Modified macromolecule” (priority 2006, dated 2012).

Details: pH 4 and pH 5

Row | Substance | stability of the conjugate in acidic conditions
1 | α-methoxy-ω-{N-2-(3-hydroxypropyl-cholesterylcarbamate)-2-methyl-[1,3]dioxan-5-yl-amido}-polyethyleneglycol110 | not stable
2 | α-methoxy-ω-N-(2-octadecyloxy-[1,3]dioxolan-4-yl)methylamido}-polyethyleneglycol110 | good stability at both pH 4 and 5
3 | α-methoxy-ω-(N-(2-methyl-s-octadedcyloxy-[1,3]dioxan-5-yl)-amido}-polyethyleneglycol110 | not stable
4 | α-methoxy-ω-{N-(2-cholesteryloxy-[1,3]dioxolan-4-yl)methylamido)-polyethyleneglycol110 | very stable at pH 5 but moderately less stable at pH 4
